Assay results taken from the supplement of paper PMC12338614.
± gives the uncertainty stated by the source.

B1: library; numbered along this chain (parent)
chain: MEVVDPQQLGMFTEGELMSVGMDTFIHRIDSTEVIYQPRRKRAKLIGKYLMGDLLGEGSYGKVKEVLDSETLCRRAVKILKKKKLRRIPNGEANVKKEIQLLRRLRHKNVIQLVDVLYNEEKQKMYMVMEYCVCGMQEMLDSVPEKRFPVCQAHGYFCQLIDGLEYLHSQGIVHKDIKPGNLLLTTGGTLKISDLGVAEALHPFAADDTCRTSQGSPAFQPPEIANGLDTFSGFKVDIWSAGVTLYNITTGLYPFEGDNIYKLFENIGKGSYAIPGDCGPPLSDLLKGMLEYEPAKRFSIRQIRQHSWFRKKHPPAEAPVPIPPSPDTKDRWRSMTVVPYLEDLHGADEDEDLFDIEDDIIYTQDFTVPGQVPEEEASHNGQRRGLPKAVCMNGTEAAQLSTKSRAEGRAPNPARKACSASSKIRRLSACKQQ

Variants of: B1
Assay: STK11 functional score (HeLa growth suppression), rescaled enrichment; synonymous median = 1, nonsense median = 0 (normalised score)
Conditions: with HeLa; variant type: missense
Method in brief: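 In HeLa, Bxb1 integrated POPCode codon-randomised libraries of codon-optimised STK11 at an AAVS1 landing pad; three regions were each transfected three times. Integrants, marked as BFP-negative and mCherry-positive, were FACS-sorted 4–5 days after electroporation and expanded for about two weeks before tiled gDNA amplicons were sequenced on NextSeq (~2 million reads per tile). Each functional score is a post/pre-selection log ratio corrected to wild type, rescaled to the synonymous and nonsense medians, and merged across codons and replicate transfections, with error estimated by bootstrapping.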

Row | Variant | STK11 functional score
1 | P339R | 1.16 ± 0.52
2 | S142I | 0.895 ± 0.26
3 | S142K | 1.52 ± 0.34
4 | T209W | 1.28 ± 0.47
5 | S421K | 1.45 ± 0.21
6 | D194P | -0.348 ± 0.096
7 | E199N | 1.54 ± 0.19
8 | E199Q | 0.887 ± 0.61
9 | W308V | -0.266 ± 0.088
10 | E130S | 1.4 ± 0.09
11 | E130G | 0.45 ± 0.39
12 | E120G | 1.26 ± 0.23
13 | E120L | 1.38 ± 0.28
14 | Y118K | 0.568 ± 0.17
15 | Y118M | 1.62 ± 0.21
16 | L344W | 1.54 ± 0.19
17 | Y60C | 0.482 ± 0.081
18 | Y60M | 1.64 ± 0.17
19 | E376P | 1.31 ± 0.15
20 | G163F | -0.122 ± 0.17
21 | R405I | 1.6 ± 0.22
22 | R75Y | 1.5 ± 0.23
23 | V34S | 1.29 ± 0.16
24 | Y253W | 0.66 ± 0.1

Row | Variant | STK11 functional score
25 | S240I | 0.369 ± 0.095
26 | P319V | 0.772 ± 0.46
27 | P319G | 1.53 ± 0.2
28 | L252W | 1.42 ± 0.17
29 | L252Y | 0.274 ± 0.59
30 | V110W | 0.328 ± 0.38
31 | P179V | 0.541 ± 0.089
32 | K431L | 1.6 ± 0.23
33 | K431F | 1.59 ± 0.28
34 | K81D | 1.28 ± 0.56
35 | K108A | 1.25 ± 0.12
36 | Y261H | 0.771 ± 0.86
37 | A397P | 1.18 ± 0.49
38 | I267W | 0.777 ± 0.086
39 | I161V | 0.514 ± 0.39
40 | P373A | 1.08 ± 0.17
41 | L184F | 0.735 ± 0.078
42 | G242K | 0.078 ± 0.73
43 | K235H | 1.29 ± 0.19
44 | N412E | 1.52 ± 0.17
45 | N412C | 1.11 ± 0.1
46 | R301Y | 1.6 ± 0.3
47 | R301S | 1.49 ± 0.35
48 | R301C | 1.17 ± 0.38

Row | Variant | STK11 functional score
49 | R331S | 1.32 ± 0.29
50 | P89H | 1.3 ± 0.17
51 | P89C | 1.29 ± 0.072
52 | C278N | 1.12 ± 0.22
53 | C278R | 1.51 ± 0.28
54 | A295C | 1.31 ± 0.43
55 | V236I | 1.24 ± 0.96
56 | E256W | 1.65 ± 0.13
57 | P149Y | -0.0036 ± 0.19
58 | P149A | 1.18 ± 0.12
59 | F366S | 1.58 ± 0.13
60 | R86W | 0.178 ± 0.085
61 | A76Y | 0.13 ± 0.083
62 | A76M | -0.216 ± 0.42
63 | D208S | 1.26 ± 0.13
64 | D208P | 1.62 ± 0.24
65 | V243A | 0.996 ± 0.097
66 | P6A | 0.942 ± 0.1
67 | P6S | 1.52 ± 0.17
68 | P6I | 1.61 ± 0.19
69 | Y49R | 0.545 ± 0.19
70 | D358W | 1.46 ± 0.16
71 | A414V | 1.48 ± 0.14
72 | L182D | 0.257 ± 0.33

Row | Variant | STK11 functional score
73 | L182F | 1.03 ± 0.16
74 | G180P | 0.814 ± 0.13
75 | G180S | 1.14 ± 0.18
76 | A398Q | 1.58 ± 0.22
77 | A218K | 1.28 ± 0.32
78 | E374F | 1.33 ± 0.3
79 | I177D | 0.0262 ± 0.27
80 | I177A | 0.128 ± 0.22
81 | Q302P | -0.0839 ± 0.19
82 | E396Y | 1.23 ± 0.21
83 | E396I | 1.57 ± 0.28
84 | E396H | 1.55 ± 0.14
85 | R104Q | 1.21 ± 0.56
86 | D359A | 1.4 ± 0.15
87 | K97D | 1.27 ± 0.21
88 | G385D | 1.3 ± 0.37
89 | G385E | 1.41 ± 0.67
90 | G385P | 1.26 ± 0.32
91 | N247E | 1.33 ± 0.12
92 | N247T | 0.951 ± 0.094
93 | Q100A | 0.571 ± 0.42
94 | Q100I | 1.64 ± 0.19
95 | V197S | 1.58 ± 0.4
96 | P324C | 1.33 ± 0.41

Row | Variant | STK11 functional score
97 | P324E | 1.53 ± 0.098
98 | W332Q | 1.55 ± 0.27
99 | P144R | 0.996 ± 0.22
100 | P144V | 0.879 ± 0.22
101 | E138I | 1.48 ± 0.37
102 | L72V | 1.16 ± 0.21
103 | R384A | 1.33 ± 0.24
104 | S31G | 1.57 ± 0.12
105 | S31T | 1.5 ± 0.11
106 | C391S | 0.743 ± 0.67
107 | E351P | 1.55 ± 0.14
108 | R87S | 0.989 ± 0.55
109 | N393L | 1.16 ± 0.46
110 | N393H | 1.51 ± 0.48
111 | A206G | 1.14 ± 0.26
112 | R211V | 1.35 ± 0.2
113 | S404C | 1.14 ± 0.56
114 | L195I | 1.44 ± 0.26
115 | E57T | 1.69 ± 0.29
116 | E57G | 1.08 ± 0.35
117 | K96Y | 1.23 ± 0.31
118 | H168S | 0.83 ± 0.3
119 | H168R | 0.838 ± 0.47
120 | I29F | 0.117 ± 0.076

Row | Variant | STK11 functional score
121 | I29N | 1.49 ± 0.75
122 | A198R | 0.174 ± 0.098
123 | G135D | 1.06 ± 0.37
124 | L140E | -0.3 ± 0.087
125 | V20R | 1.56 ± 0.14
126 | V20P | 1.43 ± 0.45
127 | S232P | 0.971 ± 0.44
128 | S232Q | 1.03 ± 0.58
129 | L427A | 1.6 ± 0.32
130 | P38E | 1.36 ± 0.39
131 | Y362A | 1.42 ± 0.26
132 | I35C | 1.39 ± 0.25
133 | I35E | 1.66 ± 0.16
134 | I35T | 1.34 ± 0.71
135 | L102D | 0.469 ± 0.2
136 | Q399E | 1.47 ± 0.45
137 | M51K | 1.32 ± 0.35
138 | M51T | 1.21 ± 0.37
139 | M18A | 1.69 ± 0.16
140 | M18I | 0.652 ± 0.32
141 | I224W | 1.3 ± 0.41
142 | E407Q | 0.809 ± 0.34
143 | G279C | 0.657 ± 0.1
144 | E14W | 0.426 ± 0.6

Row | Variant | STK11 functional score
145 | E14P | 1.65 ± 0.34
146 | E14Q | 1.35 ± 0.3
147 | G187R | 0.864 ± 0.65
148 | G394S | 1.46 ± 0.33
149 | L290S | 0.0143 ± 0.1
150 | G233S | 1.44 ± 0.3
151 | Q220G | 0.849 ± 0.17
152 | V143G | 1.33 ± 0.077
153 | L190I | 1.04 ± 0.35
154 | F298I | 1.35 ± 0.61
155 | R106A | 1.45 ± 0.18
156 | I274L | 1.02 ± 0.16
157 | I274W | 0.0744 ± 0.12
158 | A347R | 1.54 ± 0.18
159 | A347T | 1.33 ± 0.14
160 | E342Q | 1.23 ± 0.3
161 | S422L | 1.17 ± 0.12
162 | V337N | 1.54 ± 0.17
163 | D176K | -0.194 ± 0.099
164 | D277W | 0.81 ± 0.57
165 | V128Q | 1.22 ± 0.12
166 | D343I | 1.57 ± 0.18
167 | M392R | 0.973 ± 0.31
